Assay results as given in patent US20260224724A1, “GLYCOSYNTHASE VARIANTS FOR ANTIBODY-DRUG CONJUGATE ENGINEERING” (OBI Pharma, Inc., priority 2022, published 2026).

Experiments:
Herceptin-GlcNAc = test: Transglycosylation of glycan-oxazoline to Herceptin-GlcNAc, monitored by HPLC; type: biochemical; conditions: for 1N-G2S2 (hemi-glycosylated) / 2N-G2S2 (fully glycosylated) / GlcNAc(F) (unreacted acceptor) / 1N-Glycan / 2N-Glycan / GlcNAc(F): acceptor Herceptin-GlcNAc; for 1N-G2S2 (hemi-glycosylated) / 2N-G2S2 (fully glycosylated) / GlcNAc(F) (unreacted acceptor): NSCT-oxa, best conditions (20:1 EndoSz-D234M, 150:1 EndoSd-D232M)
Protocol: (§1) In general procedures, mAb-GlcNAc/mAb-GlucNAc-F (5 mg) was incubated with glycan-oxa with molar ratio 1:20 and 1:150 (mAb-GlcNAc:NSCT-oxa) by EndoSz-D234M (167 μg) or EndoSd-D232M (1002 μg), respectively, at 30° C. for 20 minutes in a MOPS buffer (50 mM, pH 6.7), to final volume 500 μL. There were some slight modifications according to experiment purposes and designs (see result section). HLPC was employed to monitor the transglycosylation efficiency.
(§2) The glycosynthase activity was analyzed by HPLC (Waters e2695) using 2.1×150 mm UPLC Glycoprotein Amide Column (Waters) under two different buffers (Buffer A, ddH2O/0.3% v/v HFIP (1,1,1,3,3,3-Hexafluoro-2-propanol), 0.1% v/v TFA; Buffer B, ACN, 0.3% v/v HFIP, 0.1% v/v TFA) with the gradient as Table 4.
(§3) After ensuring the baseline stability by injection water blank, the process was started by 2 μL sample injection. In the process duration (29 mins), the flow rate was 0.2 mL/min under the column temperature of 65° C. and sample tray temperature of 5° C.

Herceptin-GlcNAc-F = test: Transglycosylation of glycan-oxazoline to fucosylated Herceptin-GlcNAc-F, monitored by HPLC; type: biochemical; conditions: for GlcNAc(F) (unreacted acceptor) / 1N-G2S2 (hemi-glycosylated) / 2N-G2S2 (fully glycosylated, Herceptin-2N-G2S2F): NSCT-oxa, best conditions; for 1N-G2S2 (hemi-glycosylated) / 2N-G2S2 (fully glycosylated, Herceptin-2N-G2S2F) / 1N-Glycan / 2N-Glycan / GlcNAc(F): acceptor Herceptin-GlcNAc-F
Protocol: as §1, §2, §3

B1: EndoSz-D234M: D234M glycosynthase mutant of EndoSz from Streptococcus equi subsp. Zooepidemicus Sz105, SEQ ID NO 2 (protein, listed as Streptococcus equi)
chain: MVAILAAQHDSLIRVKAEDKLVQTSPSVSAIDALHYLSENSKKEFKEELSKVEKAQPEKLKEIVSKAQQADKQAKTLAEMKVPEKIPMKPLKGPLYGGYFRTWHDKTSDPAEKDKVNSMGELPKEVDLAFVFHDWTKDYSLFWQELATKHVPTLNKQGTRVIRTIPWRFLAGGDHSGIAEDAQKYPNTPEGNKALAKAIVDEYVYKYNLDGLDVMIERDSIPKVNKEESKEGIERSIQVFEEIGKLIGPKGADKSRLFIMDSTYMADKNPLIERGAPYIDLLLVQVYGTQGEKGGFDNANHKAVDTMEERWESYSKYIRPEQYMVGFSFYEEKANSGNLWYDVNVEDDTNPNIGSEIKGTRAERYAKWQPKTGGVKGGIFSYGIDRDGVAHPKKNGPKTPDLDKIVKSDYKVSKALKKVMENDKSYELIDQKDFPDKALREAVIAQVGSRRGNLERFNGTLRLDNPDIKSLEGLNKLKKLAKLELIGLSQITKLDSSVLPENIKPTKDTLVSVLETYKNDDRKEEAKAIPQVALTISGLTGLKELNLAGFDRDSLAGIDAASLTSLEKVDLSSNKLDLAAGTENRQILDTMLATVTKHGGVSEKTFVFDHQKPTGLYPDTYGTKSLQLPVANDTIDLQAKLLFGTVTNQGTLINSEADYKAYQEQEIAGHRFVDSSYDYKAFAVTYKDYKIKVTDSTLGVTDHKDLSTSKEETYKVEFFSPINSTKPVHEAKIVVGEEKTMMVNLAEGATIIGGDADPTNAKKVFDGLLNNDTTTLSTSNKASIIFELKEPGLVKHWRFFNDSKISKADYIKEAKLEAFVGHLEDSSKVKDSLEKSTEWVTVSDYSGEAQEFSQPLNNIGAKYWRITIDNKKSQYGYVSLPELQIIGHRLPEAATVMTTMAAAEELSQQKDKFSQEQLKELEVKVAALKAALDNKMFNADTINASFADVKAYIDKLLADAAGKKTLGKATKEAQPVATDAKEKAESENPKADHHHHHH
Herceptin-GlcNAc; EndoSz-D234M set to 100%, NSCT-oxa donor, best conditions
  Relative transglycosylation activity of EndoSz mutants: 100%
Herceptin-GlcNAc
  1N-G2S2 (hemi-glycosylated): 4.8%
  2N-G2S2 (fully glycosylated): 91.85%
  GlcNAc(F) (unreacted acceptor): 3.35%
Herceptin-GlcNAc; glycan G0, 20:1
  1N-Glycan: 2.58%
  2N-Glycan: 96.50%
  GlcNAc(F): 0.91%
Herceptin-GlcNAc; glycan G2, 20:1
  1N-Glycan: 4.52%
  2N-Glycan: 94.87%
  GlcNAc(F): 0.61%
Herceptin-GlcNAc; glycan M3 (40eq)
  1N-Glycan: 6.51%
  2N-Glycan: 92.37%
  GlcNAc(F): 1.11%
Herceptin-GlcNAc-F
  GlcNAc(F) (unreacted acceptor): 1.72%
  1N-G2S2 (hemi-glycosylated): 4.00%
  2N-G2S2 (fully glycosylated, Herceptin-2N-G2S2F): 94.29%
Herceptin-GlcNAc-F; glycan type G0F
  1N-Glycan: 2.45%
  2N-Glycan: 97.55%
  GlcNAc(F): 0.00%
Herceptin-GlcNAc-F; glycan type G2F
  1N-Glycan: 2.64%
  2N-Glycan: 97.14%
  GlcNAc(F): 0.21%
Herceptin-GlcNAc-F; glycan type M3F
  1N-Glycan: 4.95%
  2N-Glycan: 94.44%
  GlcNAc(F): 0.62%

B2: EndoSd-D232M: D232M glycosynthase mutant of EndoSd from Streptococcus dysgalactiae subsp. Dysgalactiae, SEQ ID NO 1 (protein, listed as Streptococcus dysgalactiae)
chain: MGTILGTHHDSLISVKAEEKITQVSQTSTSIDDLHYLSENSKKEFKEELSKEKVPEKVKEILSKAQQANKQAQELAEMKVPDKIPMKPLNGPLYGGYFRTWHDKTSDPLEKDKVNSMGELPKEVDLAFVFHDWTKDYSLFWKELATKHVPKLNKQGTRVIRTIPWRFLAGGDNSGIAEDASKYPNTPEGNKALAKAIVDEYVYKYNLDGLDVMIEHDSIPKVNGEASDENLKRSIDVFEEIGKLIGPKGADKSRLFIMDSTYMADKNPLIERGAPYIDLLLVQVYGSQGEQGEFQNDTKSVTKTPEERWQGYSKYIRPEQYMIGFSFYEEKAGSGNLWYDINARKDEDTANGINDDITGTRAERYARWQPKTGGVKGGIFSYAIDRDGVAHQPKQIAEKDKQSVKNNRPLISEITDNIFHSNYSVSKTLKTVMLKDKAYDLIDEKDFPDKALREAVMAQVGTRKGDLERFNGTLRLDNPAIQSLEGLNKFKKLAQLDLIGLSRIIKLDQSVLPANMKPGKDPLETVLETYKKNGKEEPAIIPPVSLTVSGLTGLKELDLSGFDRETLAGIDAATLTSLEKVDISDNKLDLAPKTENRQIFDVMLSTVNNNAGISEQSIKFDNQKPAGNYPQTYGATNLQLPVRQEKIDLQHQLLFGTITNQGTLINSEADYKTYRNQKIAGRNFVDPDYPYNNFKVSHDNYTVKVTDSTLGTTTDKMLATDKEETYKVDFFSPTDKTKAVHTAKVIVGDEKTMMVNLAEGATVIKSENDENAQKVFNGIMEYNPLSFNNKSSIIFEIKDPSLAKYWRLFNDSSKDKKDYIKEAKLEVFTGQLNAEADVKTILEKPDNWVTVSTYSGEEKVFSHSLDNISAKYWRVTVDNKKDQYGYVSLPELQILGYPLPNADTIMKTVTVAKELSQQKDKFPQQLLDESTAKEAVVEASLNSKLFDTGVINTNVEALKNVVDECLAYEKNKETAFKATEDYRAAVNGVKAESVTVEEMAQLKDLIGKAAHLNSKIDAKLADREYDKDLLGLIGELTNITRTVKSFVKHHHHHH
Herceptin-GlcNAc; EndoSd-D232M set to 100%, NSCT-oxa donor, best conditions
  Relative transglycosylation activity of EndoSd mutants: 100%
Herceptin-GlcNAc
  1N-G2S2 (hemi-glycosylated): 2.11%
  2N-G2S2 (fully glycosylated): 97.88%
  GlcNAc(F) (unreacted acceptor): 0%
Herceptin-GlcNAc; molar ratio 20:1 (NSCT-oxa/antibody), final condition of EndoSz-D234M
  Herceptin-2N-G2S2 generated: 46.06%
Herceptin-GlcNAc-F
  GlcNAc(F) (unreacted acceptor): 0%
  1N-G2S2 (hemi-glycosylated): 3.17%
  2N-G2S2 (fully glycosylated, Herceptin-2N-G2S2F): 94.75%
